Reference: paper PMC12828764, “The electrophilic metabolite of kynurenine, kynurenine-CKA, requires C151 in Keap1 to derepress Nrf2” (Redox Biology, 2025)

Columns and labels:
Cys151 = Cys151 (UniProt position 151, SMGEKCVLHVM); conditions: not stated (reduced, unmodified C151 implied); cited from earlier work
Keap1 = test system: T1, Keap1; assay: intact-protein MS and MS/MS adduct mapping, UV-Vis reaction kinetics with purified Keap1-BTB (no reaction with C151S); the IC50 is from ITDRF-CETSA of Keap1-mCherry in cell lysate; assay type: binding
T1 construct: cell lysate CETSA

Row | Compound | pKa (Cys151) | EC50 (Keap1) [µM]
1 | Kelch-like ECH-associated protein 1 (Keap1), BTB domain (not stated for the recombinant protein (probably Homo sapiens, inferred)) | 6.9 | 
2 | Nc1ccccc1C(=O)/C=C/C(=O)O (mixture of isomers) [Kyn-CKA, (E)- and (Z)-(4-(2-aminophenyl)-4-oxobut-2-enoic acids] |  | 12
